Target: KIF5A ΔExon27-GFP (human) (UniProt Q12840)
Experiment: single-molecule TIRF microscopy, fluorescence intensity of moving spots

KIF5A ΔExon27-GFP (from UniProt Q12840 1-998) (natural protein)
percent of moving spots that are a single dimer: 25%

From article doi:10.1101/2022.03.05.483071
